The test concerns the target Human NGF (manufactured by R&D Systems) (human) (UniProt P01138). Briefly: cell-based or functional assay.

Bounds are passed on as bounds.

This is an account of results in US20110251266A1.

Human NGF (manufactured by R&D Systems) (human), sequence (P01138 122-241 limits assumed): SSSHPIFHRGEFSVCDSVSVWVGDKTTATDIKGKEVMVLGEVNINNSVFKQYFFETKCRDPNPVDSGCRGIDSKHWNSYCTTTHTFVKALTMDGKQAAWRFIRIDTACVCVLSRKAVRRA

Substance “anti-NGF antibody (MAB2561, R&D Systems)” returned an inhibitory activity (neurite outgrowth of PC-12 cells) of more than 50%.
